Measurements published in IntAct's records for PubMed 31515488.

B1: SH2 domain-containing protein 4A (Homo sapiens), Q9H788 (parent)
chain: MLKQILSEMYIDPDLLAELSEEQKQILFFKMREEQIRRWKEREAAMERKESLPVKPRPKKENGKSVHWKLGADKEVWVWVMGEHHLDKPYDVLCNEIIAERARLKAEQEAEEPRKTHSEEFTNSLKTKSQYHDLQAPDNQQTKDIWKKVAEKEELEQGSRPAPTLEEEKIRSLSSSSRNIQQMLADSINRMKAYAFHQKKESMKKKQDEEINQIEEERTKQICKSWKEDSEWQASLRKSKAADEKRRSLAKQAREDYKRLSLGAQKGRGGERLQSPLRVPQKPERPPLPPKPQFLNSGAYPQKPLRNQGVVRTLSSSAQEDIIRWFKEEQLPLRAGYQKTSDTIAPWFHGILTLKKANELLLSTGMPGSFLIRVSERIKGYALSYLSEDGCKHFLIDASADAYSFLGVDQLQHATLADLVEYHKEEPITSLGKELLLYPCGQQDQLPDYLELFE
B2: Tuftelin-interacting protein 11 (Homo sapiens), Q9UBB9 (parent)
chain: MSLSHLYRDGEGRIDDDDDERENFEITDWDLQNEFNPNRQRHWQTKEEATYGVWAERDSDDERPSFGGKRARDYSAPVNFISAGLKKGAAEEAELEDSDDEEKPVKQDDFPKDFGPRKLKTGGNFKPSQKGFAGGTKSFMDFGSWERHTKGIGQKLLQKMGYVPGRGLGKNAQGIINPIEAKQRKGKGAVGAYGSERTTQSMQDFPVVDSEEEAEEEFQKELSQWRKDPSGSKKKPKYSYKTVEELKAKGRISKKLTAPQKELSQVKVIDMTGREQKVYYSYSQISHKHNVPDDGLPLQSQQLPQSGKEAKAPGFALPELEHNLQLLIDLTEQEIIQNDRQLQYERDMVVNLFHELEKMTEVLDHEERVISNLSKVLEMVEECERRMQPDCSNPLTLDECARIFETLQDKYYEEYRMSDRVDLAVAIVYPLMKEYFKEWDPLKDCTYGTEIISKWKSLLENDQLLSHGGQDLSADAFHRLIWEVWMPFVRNIVTQWQPRNCDPMVDFLDSWVHIIPVWILDNILDQLIFPKLQKEVENWNPLTDTVPIHSWIHPWLPLMQARLEPLYSPIRSKLSSALQKWHPSDSSAKLILQPWKDVFTPGSWEAFMVKNIVPKLGMCLGELVINPHQQHMDAFYWVIDWEGMISVSSLVGLLEKHFFPKWLQVLCSWLSNSPNYEEITKWYLGWKSMFSDQVLAHPSVKDKFNEALDIMNRAVSSNVGAYMQPGARENIAYLTHTERRKDFQYEAMQERREAENMAQRGIGVAASSVPMNFKDLIETKAEEHNIVFMPVIGKRHEGKQLYTFGRIVIYIDRGVVFVQGEKTWVPTSLQSLIDMAK
partner: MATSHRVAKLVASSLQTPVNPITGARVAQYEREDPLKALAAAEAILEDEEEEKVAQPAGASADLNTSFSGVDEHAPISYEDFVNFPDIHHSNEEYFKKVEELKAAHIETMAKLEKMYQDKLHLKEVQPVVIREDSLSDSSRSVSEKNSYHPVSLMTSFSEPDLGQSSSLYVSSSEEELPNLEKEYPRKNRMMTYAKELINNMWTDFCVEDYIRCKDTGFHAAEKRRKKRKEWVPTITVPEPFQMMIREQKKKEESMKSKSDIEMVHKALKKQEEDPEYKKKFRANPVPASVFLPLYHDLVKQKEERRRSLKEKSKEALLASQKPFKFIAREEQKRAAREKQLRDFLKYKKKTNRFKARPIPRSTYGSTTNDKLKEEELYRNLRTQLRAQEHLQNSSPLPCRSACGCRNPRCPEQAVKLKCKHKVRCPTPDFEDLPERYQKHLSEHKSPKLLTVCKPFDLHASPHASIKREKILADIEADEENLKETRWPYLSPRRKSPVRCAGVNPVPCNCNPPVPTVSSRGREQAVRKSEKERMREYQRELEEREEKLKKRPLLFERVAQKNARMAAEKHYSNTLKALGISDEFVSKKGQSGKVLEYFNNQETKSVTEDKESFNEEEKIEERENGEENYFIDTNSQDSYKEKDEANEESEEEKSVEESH
B3: Peroxisomal bifunctional enzyme (Homo sapiens), Q08426 (parent)
chain: MAEYTRLHNALALIRLRNPPVNAISTTLLRDIKEGLQKAVIDHTIKAIVICGAEGKFSAGADIRGFSAPRTFGLTLGHVVDEIQRNEKPVVAAIQGMAFGGGLELALGCHYRIAHAEAQVGLPEVTLGLLPGARGTQLLPRLTGVPAALDLITSGRRILADEALKLGILDKVVNSDPVEEAIRFAQRVSDQPLESRRLCNKPIQSLPNMDSIFSEALLKMRRQHPGCLAQEACVRAVQAAVQYPYEVGIKKEEELFLYLLQSGQARALQYAFFAERKANKWSTPSGASWKTASARPVSSVGVVGLGTMGRGIVISFARARIPVIAVDSDKNQLATANKMITSVLEKEASKMQQSGHPWSGPKPRLTSSVKELGGVDLVIEAVFEEMSLKKQVFAELSAVCKPEAFLCTNTSALDVDEIASSTDRPHLVIGTHFFSPAHVMKLLEVIPSQYSSPTTIATVMNLSKKIKKIGVVVGNCFGFVGNRMLNPYYNQAYFLLEEGSKPEEVDQVLEEFGFKMGPFRVSDLAGLDVGWKSRKGQGLTGPTLLPGTPARKRGNRRYCPIPDVLCELGRFGQKTGKGWYQYDKPLGRIHKPDPWLSKFLSRYRKTHHIEPRTISQDEILERCLYSLINEAFRILGEGIAASPEHIDVVYLHGYGWPRHKGGPMFYASTVGLPTVLEKLQKYYRQNPDIPQLEPSDYLKKLASQGNPPLKEWQSLAGSPSSKL
partner: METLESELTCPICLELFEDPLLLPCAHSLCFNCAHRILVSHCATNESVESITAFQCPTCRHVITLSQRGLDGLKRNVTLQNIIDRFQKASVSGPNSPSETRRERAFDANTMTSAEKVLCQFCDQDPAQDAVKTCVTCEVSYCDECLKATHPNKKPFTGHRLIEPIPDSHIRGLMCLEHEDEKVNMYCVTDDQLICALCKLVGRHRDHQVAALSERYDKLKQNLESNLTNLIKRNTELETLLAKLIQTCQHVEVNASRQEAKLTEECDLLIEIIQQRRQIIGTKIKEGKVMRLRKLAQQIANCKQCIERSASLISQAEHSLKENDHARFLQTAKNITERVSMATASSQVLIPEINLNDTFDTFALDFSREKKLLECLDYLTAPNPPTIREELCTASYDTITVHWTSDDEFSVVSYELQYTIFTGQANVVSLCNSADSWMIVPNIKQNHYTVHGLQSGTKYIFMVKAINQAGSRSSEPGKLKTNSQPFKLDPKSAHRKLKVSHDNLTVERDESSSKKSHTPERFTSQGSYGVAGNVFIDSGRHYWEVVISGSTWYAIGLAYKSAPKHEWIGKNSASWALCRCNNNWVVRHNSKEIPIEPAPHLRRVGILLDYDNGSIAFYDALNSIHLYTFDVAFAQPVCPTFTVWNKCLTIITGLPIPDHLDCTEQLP

Variants of: B1
Settings: with tfp11_human TFIP11, Q9UBB9

effect of a mutation on the interaction	Variant
with no effect	K303R

Variants of: B1
Settings: with tacc1_human TACC1, O75410
Chain of tacc1_human TACC1, O75410 (O75410 whole entry): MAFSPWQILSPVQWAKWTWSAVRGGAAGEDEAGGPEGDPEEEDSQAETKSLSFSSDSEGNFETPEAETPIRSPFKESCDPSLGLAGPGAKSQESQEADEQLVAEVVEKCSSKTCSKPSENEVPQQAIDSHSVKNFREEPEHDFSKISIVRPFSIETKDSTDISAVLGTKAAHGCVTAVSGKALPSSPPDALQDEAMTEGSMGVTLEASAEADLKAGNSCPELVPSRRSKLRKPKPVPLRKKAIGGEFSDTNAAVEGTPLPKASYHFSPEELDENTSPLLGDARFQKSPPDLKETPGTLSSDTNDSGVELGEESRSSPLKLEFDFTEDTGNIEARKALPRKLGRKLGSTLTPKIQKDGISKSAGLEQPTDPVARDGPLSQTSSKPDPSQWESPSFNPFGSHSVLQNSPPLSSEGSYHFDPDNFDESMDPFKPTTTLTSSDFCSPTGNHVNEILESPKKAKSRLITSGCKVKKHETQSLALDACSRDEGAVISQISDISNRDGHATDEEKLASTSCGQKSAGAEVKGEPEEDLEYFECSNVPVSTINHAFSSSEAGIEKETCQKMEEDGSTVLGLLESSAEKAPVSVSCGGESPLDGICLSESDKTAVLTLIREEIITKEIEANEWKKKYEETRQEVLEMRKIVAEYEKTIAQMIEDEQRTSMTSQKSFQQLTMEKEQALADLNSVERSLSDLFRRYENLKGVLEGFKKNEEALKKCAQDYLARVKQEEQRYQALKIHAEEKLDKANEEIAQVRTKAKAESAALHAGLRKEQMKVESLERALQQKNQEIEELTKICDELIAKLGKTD

effect of a mutation on the interaction	Variant
with no effect	K303R

Variants of: B1
Settings: with ldoc1_human LDOC1, O95751
Chain of ldoc1_human LDOC1, O95751 (O95751 whole entry): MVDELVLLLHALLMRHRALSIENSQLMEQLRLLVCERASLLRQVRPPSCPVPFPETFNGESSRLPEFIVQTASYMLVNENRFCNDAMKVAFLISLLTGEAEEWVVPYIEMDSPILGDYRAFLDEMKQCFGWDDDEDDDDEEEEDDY

effect of a mutation on the interaction	Variant
with no effect	K303R

Variants of: B2
Settings: with FAM161A

effect of a mutation on the interaction	Variant
with no effect	S688L
with no effect	R8Q

Variants of: B3
Settings: with tri18_human MID1, O15344

effect of a mutation on the interaction	Variant
with no effect	L715S
with no effect	S703F
with no effect	R556G
with no effect	R483Q
disrupting interaction strength	I646T
